Assay results from US10087231B2, “Substitution mutant receptors and their use in an ecdysone receptor-based inducible gene expression system” (Intrexon Corporation, priority 2001, dated 2018).
“Also recorded” adds a separate entry of the source.

What was measured:
[1] = test system: GAL4/CfEcR-DEF and pFRLuc in NIH3T3 cells; type: cell-based, mouse; settings: 0.04-25 μM GS™-E (FIG. 4)
Protocol: (§1) The resulting PCR nucleic acid products encoding the mutant RXR ligand binding domains were then each fused to a VP16 transactivation domain as described in Examples 1.3 and 1.6 above. The VP16/mutant RXR receptor constructs were tested for activity by transfecting them into NIH3T3 cells along with GAL4/CfEcR-DEF and pFRLuc in the presence of non-steroid ligand.
(§2) DNAs corresponding to the various switch constructs outlined in Example 1.1-1.6 were transfected into mouse NIH3T3 cells (ATCC) as follows. Standard methods for culture and maintenance of the cells were followed. […] Superfect™ (Qiagen Inc.) was used as the transfection reagent. For 12-well plates, 4 μl of Superfect™ was mixed with 100 μl of growth medium. One μg of reporter construct and 0.25 μg of each receptor construct of the receptor pair to be analyzed were added to the transfection mix. […] The cells were harvested and reporter activity was assayed.
Cells were harvested 40 hours after adding ligand. […] Twenty μl of lysate were assayed. […]
The cells were harvested and reporter activity was assayed as described above.
As discussed above, a CfEcR-based gene regulation system is ligand dependent when RXRs are used as the heterodimeric partner and ligand independent when USPs are used as the heterodimeric partner. However, reporter gene expression is induced at very high levels when CfUSP is used as the heterodimeric partner. To improve RXR as heterodimeric partner, Applicants have aligned the polypeptide sequences of several USP and RXR ligand binding domains (domains EF) and identified amino acid residues that are different between these two nuclear receptor family members. In particular, Applicants identified residues that are conserved in all USPs but are different in RXRs and mutated these residues in HsRXRβ. […] The cells were harvested and reporter activity was assayed as described above.

[2] = test system: GAL4/CfEcR-DEF and pFRLuc in NIH3T3 cells; assay: Reporter gene transactivation of VP16/mutant MmRXRα-EF with GAL4/CfEcR-DEF and pFRLuc, GS™-E ligand; type: cell-based, mouse; settings: for induction levels / sensitivity to non-steroid ligand: NIH3T3 cells, 0.2, 1 and 10 μM GS™-E; for background levels in the absence of ligand: NIH3T3 cells, VP16/MmRXRα-EF mutant + GAL4/CfEcR-DEF + pFRLuc, no ligand (DMSO)
Protocol: as §1, §2
Cells were harvested 40 hours after adding ligand. […] Twenty μl of lysate were assayed.
DNAs corresponding to the various switch constructs outlined in Example 1, specifically switches 1.1-1.4, were transfected into mouse NIH3T3 cells (ATCC) as follows. […] Two μl of Superfect™ was mixed with 100 μl of growth medium and 50 ng of GAL4/CfEcR-DEF cassette, 50 ng of: VP16/LmUSP-EF, VP16/wild-typeMmRXRα-EF, VP16/MmRXRα-LmUSPchimera-EF, or VP16/mutantMmRXRα-EF, and 200 ng of pFRLuc were added to the transfection mix. […] The cells were harvested and reporter activity was assayed as described above.

| Molecule | transactivation activity [1] | induction levels [2] | sensitivity to non-steroid ligand [2] | background levels in the absence of ligand [2] | performance compared with chimeric vertebrate RXR/invertebrate RXR ([2]; NIH3T3 cells, 0.2, 1 and 10 μM GS™-E (FIG. 2)) |
| --- | --- | --- | --- | --- | --- |
| M431L: HsRXRβ ligand binding domain substitution mutant (SEQ ID NO: 2) (protein, listed as Homo sapiens) MSWAARPPFLPQRHAAGQCGPVGVRKEMHCGVASRWRRRRPWLDPAAAAAAAVAGGEQQTPEPEPGEAGRDGMGDSGRDSRSPDSSSPNPLPQGVPPPSPPGPPLPPSTAPSLGGSGAPPPPPMPPPPLGSPFPVISSSMGSPGLPPPAPPGFSGPVSSPQINSTVSLPGGGSGPPEDVKPPVLGVRGLHCPPPPGGPGAGKRLCAICGDRSSGKHYGVYSCEGCKGFFKRTIRKDLTYSCRDNKDCTVDKRQRNRCQYCRYQKCLATGMKREAVQEERQRGKDKDGDGEGAGGAPEEMPVDRILEAELAVEQKSDQGVEGPGGTGGSGSSPNDPVTNICQAADKQLFTLVEWAKRIPHFSSLPLDDQVILLRAGWNELLIASFSHRSIDVRDGILLATGLHVHRNSAHSAGVGAIFDRVLTELVSKMRDLRMDKTELGCLRAIILFNPDAKGLSNPSEVEVLREKVYASLETYCKQKYPEQQGRFAKLLLRLPALRSIGLKCLEHLFFFKLIGDTPIDTFLMEMLEAPHQLA | essentially eliminated transactivation activity | – | – | – | – |
| E401D: MmRXRα ligand binding domain substitution mutant, glutamic acid to aspartic acid at 401 of SEQ ID NO: 1, fused to VP16 (protein) MGPKKKRKVAPPTDVSLGDELHLDGEDVAMAHADALDDFDLDMLGDGDSPGPGFTPHDSAPYGALDMADFEFEQMFTDALGIDEYGGEFPANEDMPVEKILEAELAVEPKTETYVEANMGLNPSSPNDPVTNICQAADKQLFTLVEWAKRIPHFSELPLDDQVILLRAGWNELLIASFSHRSIAVKDGILLATGLHVHRNSAHSAGVGAIFDRVLTELVSKMRDMQMDKTELGCLRAIVLFNPDSKGLSNPAEVEALREKVYASLDAYCKHKYPEQPGRFAKLLLRLPALRSIGLKCLEHLFFFKLIGDTPIDTFLMEMLEAPHQAT | – | higher induction levels | increased sensitivity to a non-steroid ligand | higher background | – |
| E401D/G429S: double substitution mutant MmRXRα-EF with E401D and G429S; three independent clones analyzed (protein) MGPKKKRKVAPPTDVSLGDELHLDGEDVAMAHADALDDFDLDMLGDGDSPGPGFTPHDSAPYGALDMADFEFEQMFTDALGIDEYGGEFPANEDMPVEKILEAELAVEPKTETYVEANMGLNPSSPNDPVTNICQAADKQLFTLVEWAKRIPHFSELPLDDQVILLRAGWNELLIASFSHRSIAVKDGILLATGLHVHRNSAHSAGVGAIFDRVLTELVSKMRDMQMDKTELGCLRAIVLFNPDSKGLSNPAEVEALREKVYASLDAYCKHKYPEQPGRFAKLLLRLPALRSISLKCLEHLFFFKLIGDTPIDTFLMEMLEAPHQAT | – | increased induction levels | increased induction levels and ligand sensitivity | low background levels | work as well as the chimeric RXR |
| G429S: MmRXRα ligand binding domain substitution mutant, glycine to serine at 429 of SEQ ID NO: 1, fused to VP16 (protein) MGPKKKRKVAPPTDVSLGDELHLDGEDVAMAHADALDDFDLDMLGDGDSPGPGFTPHDSAPYGALDMADFEFEQMFTDALGIDEYGGEFPANEDMPVEKILEAELAVEPKTETYVEANMGLNPSSPNDPVTNICQAADKQLFTLVEWAKRIPHFSELPLDDQVILLRAGWNELLIASFSHRSIAVKDGILLATGLHVHRNSAHSAGVGAIFDRVLTELVSKMRDMQMDKTELGCLRAIVLFNPDSKGLSNPAEVEALREKVYASLEAYCKHKYPEQPGRFAKLLLRLPALRSISLKCLEHLFFFKLIGDTPIDTFLMEMLEAPHQAT | – | – | increased sensitivity to a non-steroid ligand; also recorded: increased sensitivity to ligand | less background | – |
